From EP1888114B1

T1: human MCP-2 (human), P80075
T1 chain: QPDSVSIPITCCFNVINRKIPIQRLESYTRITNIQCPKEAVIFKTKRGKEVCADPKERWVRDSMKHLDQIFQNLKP


Tests used:
[1] = target: T1, human MCP-2 (human), P80075; assay: 125I-MCP-2 binding to CCR2 on THP-1 cells, radio-ligand competition
[2] = target: T2, human monocyte chemoattractant protein-1 (MCP-1) (human), P13500; assay: 125I-MCP-1 binding to THP-1 cells, radio-ligand competition
[3] = target: T2, human monocyte chemoattractant …; assay: cell-based or functional assay
[4] = target: T2, human monocyte chemoattractant …; assay: SET, BioVeris, Fab, rh MCP-1
[5] = target: T2, human monocyte chemoattractant …; assay: SET, IGEN (BioVeris)
[6] = target: T2, human monocyte chemoattractant …; assay: SET, BioVeris, IgG1, rh MCP-1
[7] = target: cynomolgus monkey MCP-1 (cynomolgus monkey), P61274; assay: SET, BioVeris, cyno MCP-1
cynomolgus monkey MCP-1 (cynomolgus monkey), P61274, sequence (P61274 24-99 limits assumed): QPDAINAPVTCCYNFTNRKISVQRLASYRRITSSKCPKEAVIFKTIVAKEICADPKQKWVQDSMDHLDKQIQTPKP

[8] = target: cynomolgus monkey MCP-1 (cynomolgus monkey), P61274; assay: SET, BioVeris, IgG1, cyno MCP-1

T2 sequence (P13500 other isoform, or with tags, fused parts or gaps, form in doubt): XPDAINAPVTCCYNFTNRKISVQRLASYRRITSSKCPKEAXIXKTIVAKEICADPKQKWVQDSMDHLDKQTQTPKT

IC50 [1] [nM]	IC50 [2] [nM]	Inhibition of Ca2+ Mobilization IC50 [3] [nM]	Kd [4] [nM]	Kd [5] [nM]	Kd [6] [nM]	Kd [7] [nM]	Kd [8] [nM]	Binder
> 2000	–	–	–	–	–	–	–	MOR03754 Fab (Fab, modifications not checked) chain 1: QVQLVESGGGLVQPGGSLRLSCAASGFTFRSYGMSWVRQAPGKGLEWVSSIEHKWSGYATTYAASVKGRFTISRDNSKNTLYLQMNSLRAEDTAVYYCARFEFTPWTYFDFWGQGTLVTVSS chain 2: DIELTQPPSVSVAPGQTARISCSGDNLGKKYVYWYQQKPGQAPVLVIYDDDNRPSGIPERFSGSNSGNTATLTISGTQAEDEADYYCQSYTAQSSASFGGGTKLTVL
–	0.26	25	0.12	0.12	–	–	–	MOR03790 Fab (Fab, V domains shown) VH: QVELVQSGAEVKKPGSSVKVSCKASGGTFSSYGISWVRQAPGQGLEWMGGIIPIFGTANYAQKFQGRVTITADESTSTAYMELSSLRSEDTAVYYCARYDGIYGELDFWGQGTLVTVSS VL: not shown
–	0.02	10.9	–	0.02	0.02	–	–	MOR03781 IgG1 (antibody, V domains shown) VH: QVELVQSGAEVKKPGSSVKVSCKASGGTFSSYGISWVRQAPGQGLEWMGGIIPIFGTANYAQKFQGRVTITADESTSTAYMELSSLRSEDTAVYYCARYDGIYGELDFWGQGTLVTVSS VL: not shown
–	0.18	21.8	0.03	0.03	–	–	–	MOR03781 Fab (Fab, V domains shown) VH: QVELVQSGAEVKKPGSSVKVSCKASGGTFSSYGISWVRQAPGQGLEWMGGIIPIFGTANYAQKFQGRVTITADESTSTAYMELSSLRSEDTAVYYCARYDGIYGELDFWGQGTLVTVSS VL: not shown
–	0.03	4.26	–	0.07	0.07	–	–	MOR03790 IgG1 (antibody, V domains shown) VH: QVELVQSGAEVKKPGSSVKVSCKASGGTFSSYGISWVRQAPGQGLEWMGGIIPIFGTANYAQKFQGRVTITADESTSTAYMELSSLRSEDTAVYYCARYDGIYGELDFWGQGTLVTVSS VL: not shown
–	0.16	28.4	0.04	0.04	–	–	–	MOR03850 Fab (Fab, V domains shown) VH: QVELVQSGAEVKKPGSSVKVSCKASGGTFSSYGISWVRQAPGQGLEWMGAINPLAGHTHYAQKFQGRVTITADESTSTAYMELSSLRSEDTAVYYCARYDGIYGELDFWGQGTLVTVSS VL: not shown
–	0.05	9.47	–	0.01	0.011	0.01	0.021	MOR03850 IgG1 (antibody, modifications not checked) chain 1: QVELVQSGAEVKKPGSSVKVSCKASGGTFSSYGISWVRQAPGQGLEWMGAINPLAGHTHYAQKFQGRVTITADESTSTAYMELSSLRSEDTAVYYCARYDGIYGELDFWGQGTLVTVSS chain 2: not shown
